Experimental data reported in the Human Domainome abundance scans (Beltran et al. 2025).

B1: Transcription factor SOX-11, residues 50 to 117; numbered along this chain, P35716 (parent)
chain: KRPMNAFMVWSKIERRKIMEQSPDMHNAEISKRLGKRWKMLKDSEKIPFIREAERLRLKHMADYPDYK

Variants of: B1
Experiment: abundance fitness (aPCA) (normalised: wild type 0, dead -1); higher = more abundant; growth selection in yeast, the domain comes from the species named
Details: Homo sapiens

Abundance fitness: each site, then its substitutions
N5: W -0.438, Y -0.524
A6: C -0.634, D -0.751, E -0.338, F -0.987, G -0.03, H -0.553, I -0.934, L -0.666, M -0.831, N -0.976, P -0.524, Q -1.05, R -0.776, S -0.531, T -0.767, V -0.629, W -1.29, Y -0.827
F7: A -0.75, C -0.534, D -0.848, E -0.689, G -0.765, H -0.879, I -0.795, K -0.887, L -0.958, N -0.795, P -0.967, Q -0.476, R -0.478, T -0.839, V -1.03, W -0.018, Y -0.203
M8: A 0.101, C -0.168, D 0.456, E 0.299, F -0.14, G -0.079, H -0.033, I -0.117, K -0.394, L -0.039, N -0.111, P -0.609, Q 0.324, R -0.239, T 0.165, V -0.131, W -0.446, Y -0.089
V9: A -0.644, C -0.448, D -0.671, F -0.63, G -0.687, H -0.402, I 0.037, L 0.177, M -0.61, N -0.734, P -0.891, Q -0.894, R -0.926, S -0.847, T -0.777, W -0.411, Y -0.558
W10: A -0.543, C -1.01, D -0.781, F -0.253, G -0.797, H -0.783, I -0.961, K -0.627, L -0.819, M -0.345, N -0.594, P -0.589, Q -1.09, S -0.913, T -0.576, V -0.872, Y -0.375
S11: C -0.4, D -1.11, F -0.471, G -0.283, H -1.37, I -1.19, L -0.857, N -0.399, P -0.599, R -0.767, T -0.602, V -0.597, Y -0.267
K12: A 0.175, C -0.131, E 0.359, F -0.232, G -0.2, H -0.006, I -0.099, L -0.016, M -0.043, N 0.014, P -0.746, Q 0.007, S 0.074, T -0.119, V 0.012, W -0.89, Y -0.448
I13: A -0.135, C -0.407, E -0.077, F -0.263, G -0.206, H -0.153, K -0.717, L -0.237, M -0.106, N -0.372, P -0.646, Q -0.06, R -0.446, S -0.406, T -0.164, V -0.128, W -0.684
E14: A -0.615, C -0.533, D -0.861, F -0.645, G -0.771, H -0.577, I -0.722, K -0.953, L -1.05, M -0.352, N -0.338, P -0.739, Q -0.247, S -0.488, T -1.16, V -0.895, W -0.734, Y -0.696
R15: A -0.217, C -0.384, D -1.11, E 0.101, F -0.601, G -0.397, I -0.267, K -0.151, L -0.445, M -0.142, N -0.527, P -1.1, Q -0.108, S -0.154, T -0.073, V -0.397, Y -0.081
R16: A 0.218, D -0.036, E 0.082, F -0.319, G -0.105, H -0.001, I 0.002, L -0.015, M -0.667, P -0.089, Q 0.199, S -0.134, T -0.212, V 0, W -0.956, Y -0.372
K17: A -0.484, C -0.527, F -0.531, G -0.756, H -0.47, I -0.403, L -0.373, M -0.533, N -0.407, P -0.566, Q -0.199, S -0.518, T -0.458, V -0.6, W -1.17, Y -0.564
I18: A -0.521, C -0.714, D -0.741, E -0.355, F -0.688, G -0.772, H -0.918, K -0.856, N -0.625, P -0.619, Q -0.869, R -0.945, S -0.732, T -0.884, V -0.307, W -0.256, Y -0.34
M19: C -0.29, D -0.649, E -0.069, G -0.435, H -0.187, I -0.062, K 0.021, N -0.426, P -0.769, Q -0.202, R -0.24, S -0.264, T -0.103, V -0.042, W -0.762
E20: A -0.348, F -0.496, H -0.319, I -0.569, L -0.27, M -0.723, N -0.236, P -0.812, Q -0.83, R -0.705, S -0.36, T -0.185, W -0.577, Y -0.781
Q21: C -0.323, D -0.267, E 0.148, F -0.661, G -0.256, H -0.194, I -0.13, K -0.303, L -0.353, M -0.35, N -0.156, P -0.437, R -0.235, S -0.172, T -0.13, V -0.223, W -0.313, Y -0.581
S22: A -0.061, D 0.042, E -0.112, F 0.118, G -0.587, H 0.052, I -0.539, K -0.352, L -0.522, M -0.302, P -0.841, Q -0.09, R -0.513, T -0.072, V -0.442, W -0.024, Y 0.165
P23: A -0.391, D -0.739, E -0.49, G -0.431, H -0.791, I -0.869, K -1.28, L -0.287, M -0.85, N -0.843, Q -0.706, R -0.74, S -0.453, V -0.598, W -1.09, Y -0.665
D24: A -0.093, C -0.435, E -0.164, F -0.435, G -0.105, H -0.26, I -0.538, K -0.578, L -0.507, M -0.63, N -0.128, P -0.836, Q -0.147, R -0.456, T -0.22, V -0.643, W -0.337, Y -0.35
M25: A -0.141, C -0.34, D -0.717, E -0.739, F -0.571, G -0.759, H -0.641, K -0.608, N -0.418, P -0.892, Q -0.782, R -0.546, S -0.53, T -0.317, V -0.278, W -0.715
